This data set concerns the molecule itself. Nature of the data set: crystal structure.

B1: Human lens fiber membrane intrinsic protein MP20 (construct selected for crystallization) (natural protein)
chain: MYSFMGGGLFCAWVGTILLVVAMATDHWMQYRLSGSFAHQGLWRYCLGNKCYLQTDSIAYWNATRAFMILSALCAISGIIMGIMAFAHQPTFSRISRPFSAGIMFFSSTLFVVLALAIYTGVTVSFLGRRFGDWRFSWSYILGWVAVLMTFFAGIFYMCAYRVHECRRLSTPR
modifications: Janelia Fluor 549 NHS-ester labelling on column; membranes incubated with iodoacetamide
The stoichiometry N is the number of molecules, sites or subunits per partner or assembly. As for B1, the “stoichiometry N” value turned out to be 4.

These data come from paper PMC11118347 (bioRxiv, 2024).
